In patent publication US20250339531A1 (FRED HUTCHINSON CANCER CENTER, published 2025):

T1: Signal transducer and activator of transcription 1-alpha/beta (Homo sapiens, UniProt P42224 2-750)
T1 construct: also called STAT1
T1 sequence (looked up): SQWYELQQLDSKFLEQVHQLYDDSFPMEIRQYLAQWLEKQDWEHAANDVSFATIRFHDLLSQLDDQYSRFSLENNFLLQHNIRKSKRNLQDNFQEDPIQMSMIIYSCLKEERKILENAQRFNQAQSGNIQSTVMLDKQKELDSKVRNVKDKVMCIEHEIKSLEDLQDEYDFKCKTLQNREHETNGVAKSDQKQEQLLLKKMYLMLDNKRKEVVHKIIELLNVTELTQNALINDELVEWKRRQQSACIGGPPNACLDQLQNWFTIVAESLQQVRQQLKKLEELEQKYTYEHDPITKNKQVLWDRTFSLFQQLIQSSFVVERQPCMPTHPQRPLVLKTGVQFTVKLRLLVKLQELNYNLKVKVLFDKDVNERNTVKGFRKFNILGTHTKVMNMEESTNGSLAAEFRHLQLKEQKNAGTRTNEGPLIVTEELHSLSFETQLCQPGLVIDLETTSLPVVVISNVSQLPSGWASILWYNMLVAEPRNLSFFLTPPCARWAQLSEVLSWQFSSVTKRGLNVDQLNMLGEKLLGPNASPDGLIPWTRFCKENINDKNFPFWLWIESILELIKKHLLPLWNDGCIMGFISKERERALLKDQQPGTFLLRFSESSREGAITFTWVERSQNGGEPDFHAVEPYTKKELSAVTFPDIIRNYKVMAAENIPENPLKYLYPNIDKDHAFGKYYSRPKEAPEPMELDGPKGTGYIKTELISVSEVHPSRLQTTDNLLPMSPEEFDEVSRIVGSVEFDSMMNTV

B1: iDUX4aa154-271 (other)
chain: GRAPAQAGGLCSAAPGGGHPAPSWVAFAHTGAWGTGLPAPHVPCAPGALPQGAFVSQAARAAPALQPSQAAPAEGISQPAPARGDFAYAAPAPPDGALSHPQAPRWPPHPGKSREDRD
notes: not shown: N-terminal 3×FLAG tag and NLS
B2: i3XFLAG-NLS-CTDaa154-419mL1dL2 (other)
chain: MDYKDHDGDYKDHDIDYKDDDDKPPKRMRREPKKKRKVGRAPAQAGGLCSAAPGGGHPAPSWVAFAHTGAWGTGLPAPHVPCAPGALPQGAFVSQAARAAPALQPSQAAPAEGISQPAPARGDFAYAAPAPPDGALSHPQAPRWPPHPGKSREDRDPQRDGLPGPCAVAQPGPAQAGPQGQGVLAPPTSQGSPWWGWGRGPQVAGAAWEPQAGAAPPPQPAPPDASASARQGQMQGIPAPSQALQEPAPWSALPCGLLAAEAAASPEFLQQAQPLLETEAPGELEASEEAASLEAPLSEEEYRA
notes: also called longCTDmL1dL2; longCTDmL1DL2

Assays:
[1] = target: T1, Signal transducer and activator of …; assay: anti-FLAG co-IP and western of truncation series in MB135 cells (FIG. 27A)
[2] = target: T2, Immunoglobulin kappa variable 2-40 (Homo sapiens); assay: anti-FLAG co-IP LC-MS, exp 4, +Dox +IFNG
T2 construct: also called IGKV2-40
T2 sequence (A0A087WW87 20-121): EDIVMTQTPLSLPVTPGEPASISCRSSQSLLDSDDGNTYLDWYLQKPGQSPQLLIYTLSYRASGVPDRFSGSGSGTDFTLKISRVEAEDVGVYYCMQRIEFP

[3] = target: T3, Proteasome subunit alpha type (Homo sapiens); assay: anti-FLAG co-IP LC-MS, exp 4, +Dox +IFNG
T3 construct: also called PSMA6

[4] = target: T1, Signal transducer and activator of …; assay: anti-FLAG co-IP LC-MS, exp 4, +Dox +IFNG
[5] = target: T4, Uncharacterized protein (Fragment) (Homo sapiens); assay: anti-FLAG co-IP LC-MS, exp 4, +Dox +IFNG
T4 construct: also called NA (Homology to TAP2)

Row | Binder | binding result [1] | PSMs [2] [PSMs] | PSMs [3] [PSMs] | PSMs [4] [PSMs] | PSMs [5] [PSMs]
1 | B1 | no binding | – | – | – | –
2 | B2 | – | 1 | 4 | 18 | 2
